We go through ten molecules from patent US20240182575A1 (Ablynx, published 2024).

Assay [1] concerns the target T1, rhB7-H2-Fc (fusion protein of the extracellular part of human B7-H2 (ICOSL) and mouse Fc gamma 1, R&D Systems … (human; mouse, UniProt O75144 19-256; P01868 98-324 = IgG part, limits assumed).
T1 construct: extracellular domain;domain: Fc; bought; also called B7-H2 ectodomain
Kind of assay: competition ELISA, periplasmic extract, coated B7-H2; blocked ligand ICOS-biotin. How it is done:
Binding specificity was determined based on OD values compared to controls having received no Nanobody (high control).
(§1) After expression, the Nanobodies were purified via the His-tag on Talon beads.
A general note: An ELISA detects its analyte on a solid surface through an enzyme-linked reagent.

For assay [2], the target named is T1, rhB7-H2-Fc (fusion protein of the …). Kind of assay: ELISA, coated B7-H2. The protocol: Next, 10 μl of periplasmic extract containing Nanobody of the different clones in 100 μl 2% Marvel PBST were allowed to bind to the immobilized antigen. […] Binding specificity was determined based on OD values compared to controls having received no Nanobody (low control).
as §1

Assay [3] deals with T2, HuCTLA4-HuIgG1 (fusion protein of the extracellular part of human CD152 and human Fc gamma 1, CTLA4-Ig) (human, UniProt P16410 36-161).
T2 construct: extracellular domain; also called CTLA4-hFc; CTLA4-Fc; not shown: human Fc gamma 1
Kind of assay: competition ELISA, CTLA4-hFc in solution; blocked ligand coated B7-2-muFc.

Assay [4] has as its target T3, human CD28 on Jurkat cells (human, UniProt P10747 19-220).
T3 construct: whole, on cells; also called native form of the CD28 antigen; cell expressed CD28
Kind of assay: FACS competition, Jurkat cells; blocked ligand CD86-Fc. The source says: (§2) The potency of cell-expressed CD28 binding Nanobodies to inhibit the interaction of CD28 with either CD80 or CD86 was also ranked using FACS based screening method. […] Dead cells were stained by including TOPRO3 vital dye in the final resuspension buffer. All samples were read on a BD FACSarray instrument. Dead cells were excluded from the analysis by gating out TOPRO3 vital dye positive scoring cells.

The target of assay [5] is T3, human CD28 on Jurkat cells. Kind of assay: FACS competition, Jurkat cells; blocked ligand CD80-Fc.
From the text: as §2

Assay [6] concerns the target T3, human CD28 on Jurkat cells. Kind of assay: FACS, Jurkat cells. The protocol:
Binding of putative CD28 reactive Nanobodies clones was detected using unlabeled anti-c-myc tag mouse monoclonal antibody 9E10, followed by a phycoerythrin conjugated F(ab′)2 derived from goat-anti-mouse IgG (human and bovine crossabsorbed), and read on a BD FACSarray instrument. Dead cells were excluded from the analysis by gating out TOPRO3 vital dye positive scoring cells. Binding of the Nanobodies to cells was evaluated in BD FACSarray control software as PE channel histograms.

Assay [7] concerns the target T4, HuCD28-HuIgG1 (fusion protein of the extracellular part of human CD28 and human Fc gamma 1, R&D Systems Cat … (human, UniProt P10747 19-152; P01857 100-330 = IgG part).
T4 construct: extracellular domain;domain: Fc; bought; also called CD28-Ig; hCD28-Fc
Kind of assay: competition ELISA, CD28-hFc in solution; blocked ligand coated B7-1-muFc.

Assay [8] addresses T5, HuCD86-MuIgG2a (fusion protein of the extracellular part of human CD86 and mouse Fc gamma 2a, Ancell Cat … (human; mouse, UniProt P42081 24-247; P01863 98-330 = IgG part).
T5 construct: extracellular domain;domain: Fc; bought; also called B7-2
Kind of assay: competition ELISA, coated CD86-Ig; blocked ligand CD28-Ig.

For assay [9], the target named is T2, HuCTLA4-HuIgG1 (fusion protein of the …). Kind of assay: competition ELISA, CTLA4-hFc in solution; blocked ligand coated B7-1-muFc. How it is done: In order to determine B7-1 competition efficiency of CTLA4 binding Nanobodies, the purified clones were tested in an ELISA competition assay setup.
Assay [10] addresses T1, rhB7-H2-Fc (fusion protein of the …). Kind of assay: competition ELISA, coated B7-H2; blocked ligand ICOS-biotin.
Assay [11] addresses T2, HuCTLA4-HuIgG1 (fusion protein of the …). Kind of assay: alphascreen; competitor biotinylated HuCD80-MuIgG2a. The source says: Individual clones were scored as putative CTLA4/CD80 interaction inhibiting if the presence of the periplasmic extract decreased the fluorescent signal of the acceptor beads.
Assay [12] has the same target. Kind of assay: SPR, Biacore T100, CTLA4-Ig amine-coupled. How it is done:
Affinity constants (Kd) of individual purified Nanobody clones were determined by surface plasmon resonance on a Biacore T100 instrument. […] Remaining reactive groups were inactivated using ethanolamine. […] Each sample was injected for 2 min at a flow rate of 45 μl/min to allow for binding to chip-bound antigen. Next, binding buffer without Nanobody was sent over the chip at the same flow rate to allow for dissociation of bound Nanobody. After 2 min, remaining bound analyte was removed by injecting regeneration solution (10 mM Glycine/HCl pH 1.5). Binding curves obtained at different concentrations of Nanobody were used to calculate KD values. For some clones, only a single undetermined concentrations of Nanobody was injected.

The target in assay [13] is T6, human CTLA4 (Y201 mutated to valine) on stably transfected CHO-K1 cells (human, UniProt P16410 36-223).
T6 construct: whole, on cells; the mutation of the intracellular position Y201 keeps the protein on the membrane; also called human CTLA4 overexpressing CHO cells; human CTLA4 transfectant
Kind of assay: FACS, direct binding titration on human CTLA4 CHO cells (head prints IC50). The protocol:
Binding of putative CTLA4 reactive Nanobodies clones was detected using unlabeled anti-c-myc tag mouse monoclonal antibody 9E10, followed by a phycoerythrin conjugated F(ab′)2 derived from goat-anti-mouse IgG (human and bovine crossabsorbed), and read on a BD FACSarray instrument. Dead cells were excluded from the analysis by gating out TOPRO3 vital dye positive scoring cells. Binding of the Nanobodies to cells was evaluated in BD FACSarray control software as PE channel histograms.
(In general: Flow cytometry measures light scatter and fluorescence of single cells or particles in a stream.)

Assay [14] addresses T6, human CTLA4 (Y201 mutated to valine) on …. Kind of assay: FACS competition, human CTLA4 CHO cells; blocked ligand CD80-Fc. The source says: (§3) The potency of selected Nanobodies to inhibit the interaction of CTLA4 with CD80 was also ranked using FACS based screening method. […] This concentration was previously determined to be the minimal amount required to saturate all CD80 binding sites on both human and cyno CTLA4 expressing CHO cell clones in the absence of any CTLA4 interaction blocking proteins. […] Dead cells were stained by including TOPRO3 vital dye in the final resuspension buffer. All samples were read on a BD FACSarray instrument. Dead cells were excluded from the analysis by gating out TOPRO3 vital dye positive scoring cells.

For assay [15], the target named is T7, cynomolgus monkey CTLA4 on stably transfected CHO-K1 cells (human CTLA4 cDNA with S13N, I17T and L105M) (human backbone with cynomolgus monkey …, UniProt P16410 36-223).
T7 chain: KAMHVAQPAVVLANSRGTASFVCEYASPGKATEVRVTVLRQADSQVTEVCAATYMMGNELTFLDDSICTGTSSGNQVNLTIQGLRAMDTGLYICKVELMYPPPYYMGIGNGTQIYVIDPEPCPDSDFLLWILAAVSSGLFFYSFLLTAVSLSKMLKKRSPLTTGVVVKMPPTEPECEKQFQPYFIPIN
Kind of assay: FACS, direct binding titration on cyno CTLA4 CHO cells (head prints IC50).

The target in assay [16] is T6, human CTLA4 (Y201 mutated to valine) on …. Kind of assay: competition FACS on human CTLA4 CHO cells; competitor HuCD80-HuIgG1 10 nM.
From the text: as §3

B1: 95G6 (VHH)
VHH: EVQLVESGGALVQPGGSLRLSCAASGFTLGDYVIGWFRQAPGKEREWVSGISSRDGTTYYADSVKGRFTISRDNAKNTMYLQMNSLKPEDTAVYYCALRSGIAVARAPSNYDYWGQGTQVTVSS
notes: Nanobody against B7-H2 (ICOSL)
B1: in assay [1], the binding result is “binds”.

B2: 95E6 (VHH)
VHH: EVQLVESGGALVQPGGSLRLSCAASGFTLGDYVIGWFRQAPGKEREWVSGISSRDDTTYYANSVKGRFTISRDNAKNTMYLQMNSLKPEDSAVYYCALRSGIAVARAPTNYDYWGQGTQVTVSS
notes: as for B1
With B2, the binding result in assay [2] was “binds”.

B3: 66B5 (VHH)
VHH: EVQLVESGGGLVQPGESLRLSCAASKSIFSISVMAWYRQAPGKQRELVARITPGGNTNYVDSVQGRFTISRDNAKNTVYLQMNSLKPEDTAVYYCNAQGSLLLAKYDYYGQGTQVTVSS
notes: Nanobody against CTLA4
Take B3: the binding result in assay [3] is reported as “binds”.

B4: 65C2 (VHH)
VHH: EVQLVESGGGLVQAGGSLRLSCAASGLTFSNYVMGWFRQAPGKEREFVGTISWDGSDTYYTHSVKGRFTISRDNAKNVVNLQMNSLKPEDTAVYYCAADYRPGGLLSLGKNEYDYWGQGTQVTVSS
notes: Nanobody against CD28
Consider B4, for which the entries for the “IC50 (read off the curve)” value in assay [4], in [5] and in [7] were approximately 2 ng/well, approximately 3 ng/well and approximately 90 nM, respectively. Further, in assay [6], the “EC50 (read off the curve)” value was approximately 2 ng/well.

B5: CD8086PMP2B4 (VHH)
VHH: EVQLVESGGGLVQAGGSLRLSCAASGSIFSIYTMGWYRQAPGEQRELVAAITSGGSTNYADSVKGRFTISRDNAKNTVYLQMNSLKPEDTAVYYCNAIAHEEGVYRWDFWGQGTQVTVSS
notes: not shown: C-terminal c-myc tag and His6 tag
Take B5: the binding result in [8] was “binds”.

B6: 65D10 (VHH)
VHH: EVQLVESGGGLVQAGGSLRLSCAASGRTSSTATVGWFRQAPGKEREFVAVINWRSGFTYYADSVKGRFTISREYAKNTVYLQMDSLKPEDTAVYSCAADLGGRTLYGGIHYSPEEYAYWGQGTQVTVSS
notes: Nanobody against CTLA4; also called 65D10 (4-4)
Turning to B6, in [9], the “IC50 (read off the curve)” value was approximately 200 nM.

B7: 65C4 (VHH)
VHH: EVQLVESGGGLVQAGGSLRLSCKAAGRTFSSYAMGWFRQAPGKEREFVASIEWDGGGAYYEEAVKGRFTISRDNTKNTVYLQMDSLRPEDTAVYYCAASRWRTALTNYYDVADWGQGTQVTVSS
notes: Nanobody against CD28
As to B7, the “IC50 (read off the curve)” value in [4] is approximately 7 ng/well; in [5], approximately 10 ng/well; in assay [7], approximately 100 nM. The “EC50 (read off the curve)” value in [6] is approximately 20 ng/well.

B8: 95G5 (VHH)
VHH: EVQLVESGGGLVQAGGSLRLSCASSGSTFSIDVMGWYRQAPGKVRERVAIIGTGGFPVYADSVKGRFTISRDNAKNTVYLQMNSLKPEDTAVYYCNAARLVALGSWGQGTQVTVSS
notes: as for B1
Regarding B8, in assay [2], the “EC50 (read off the curve)” value is approximately 100 nM. For the same molecule, the “IC50 (read off the curve)” value in [10] was approximately 10 nM.

B9: 4CTLAPMP02F4 (VHH)
VHH: EVQLVESGGGLVQTGGSLRLSCAASGRTFSNYTMGWFRQAPGKDREFVAAISRSGALKAYADSVKGRFTPSRDNAKKMAYLQMNSLKPEDTAVYYCAAAPVPWGTRPSFFPYDSWGQGTQVTVSS
notes: short label tied to the entry by the clone code only; not shown: C-terminal c-myc tag and His6 tag
One may read the IC50 as the concentration at which inhibition is half-maximal. The Kd is the free concentration of one partner at which half of the binding sites on the other are occupied at equilibrium, for simple one-to-one binding. As usually defined, the koff is a measure of how fast the partners let go of each other. The kon is the second-order rate constant of association. With B9, the IC50 came to 0.827 nM in [11], 2.38 nM in assay [13], 2.36 nM in assay [15] and 11.4 nM in assay [16]. In assay [12], the Kd was 0.466 nM. The koff in assay [12] was 0.00266 s⁻¹. The same molecule gave a kon in assay [12] of 5.69e+06 M⁻¹ s⁻¹. For the same molecule, the “IC50 (read off the curve)” value in assay [14] is approximately 10 nM.

B10: 4CTLAPMP11F1 (VHH)
VHH: EVQLVESGGGLVQAGGSLRLSCAASGGTFSFYGMGWFRQAPGKEQEFVADIRTSAGRTYYADSVKGRFTISRDNAKNTVYLQMNSLKPEDTAVYYCAAEMSGISGWDYWGQGTQVTVSS
notes: short label tied to the entry by the clone code only; also called 11F1 WT; not shown: C-terminal c-myc tag and His6 tag
On to B10, for which the half-maximal inhibitory concentration (IC50) was 1.04 nM in [11], 4.55 nM in assay [13], 5.51 nM in assay [15] and 36.4 nM in assay [16]. The same molecule returned a Kd in [12] of 10 nM. The dissociation rate constant (koff) in assay [12] was 0.0187 s⁻¹. In assay [12], the on-rate (kon) was found to be 1.86e+06 M⁻¹ s⁻¹.
